target: IL-17A (agonist in the IL-17RA/IL17RC dimerization assay) (UniProt Q16552 24-155); assay: cell-based or functional assay
Sequence (Q16552 24-155 limits assumed): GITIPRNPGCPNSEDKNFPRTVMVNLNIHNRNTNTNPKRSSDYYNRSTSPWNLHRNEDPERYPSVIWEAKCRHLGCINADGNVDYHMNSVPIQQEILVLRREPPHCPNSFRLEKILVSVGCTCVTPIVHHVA

Question: For Ac-VHVTVPQELWEWVEE-NH2 [peptide of SEQ ID NO: 227], which “IC50 in IL-17RA/IL7RC dimerization assay” value is on record?
Answer: Its value is less than 10 µM.

Question: Ac-VHVTVPQELFEWVEE-NH2 [peptide of SEQ ID NO: 228] was tested. Which “IC50 in IL-17RA/IL7RC dimerization assay” value did it give?
Answer: The value was less than 10 µM.

Question: How did the “IC50 in IL-17RA/IL7RC dimerization assay” value turn out when Ac-VHVTVPQELYEWVEE-NH2 [peptide of SEQ ID NO: 229] was run?
Answer: Its value is less than 10 µM.

Question: Ac-VHVSIPQELWEWVRR-NH2 [peptide of SEQ ID NO: 230] was tested. Which “IC50 in IL-17RA/IL7RC dimerization assay” value did it give?
Answer: Its value is less than 10 µM.

Question: Ac-VHVSVPQELWEWVRR-NH2 [peptide of SEQ ID NO: 231] was tested. Which “IC50 in IL-17RA/IL7RC dimerization assay” value did it give?
Answer: The value was less than 10 µM.

Question: With Ac-VHVSVPQELYEWVRR-NH2 [peptide of SEQ ID NO: 232] as the binder, how does the “IC50 in IL-17RA/IL7RC dimerization assay” value read?
Answer: Its value is less than 10 µM.

Question: Which “IC50 in IL-17RA/IL7RC dimerization assay” value does the source give for Ac-VRVTIPQELWEWVRR-NH2 [peptide of SEQ ID NO: 233] here?
Answer: Its value is less than 10 µM.

Question: How did the “IC50 in IL-17RA/IL7RC dimerization assay” value turn out when Ac-VMVTIPADLYEWIRR-NH2 [peptide of SEQ ID NO: 17] was run?
Answer: The value was less than 0.4 µM.

Question: For Ac-VRVTVPQELYEWVRR-NH2 [peptide of SEQ ID NO: 234], which “IC50 in IL-17RA/IL7RC dimerization assay” value is on record?
Answer: Its value is less than 10 µM.

Question: With Ac-VRVTVPQELWEWVRR-NH2 [peptide of SEQ ID NO: 235] as the binder, how does the “IC50 in IL-17RA/IL7RC dimerization assay” value read?
Answer: The value was less than 10 µM.

Question: For Ac-VHVTVPQEIYEWVRR-NH2 [peptide of SEQ ID NO: 236], which “IC50 in IL-17RA/IL7RC dimerization assay” value is on record?
Answer: Its value is less than 10 µM.

Question: How did the “IC50 in IL-17RA/IL7RC dimerization assay” value turn out when Ac-VHVTIPQEIWEWVRR-NH2 [peptide of SEQ ID NO: 237] was run?
Answer: Its value is less than 10 µM.

Question: How did the “IC50 in IL-17RA/IL7RC dimerization assay” value turn out when Ac-VHFTVPQELYEWVRR-NH2 [peptide of SEQ ID NO: 238] was run?
Answer: The value was less than 10 µM.

Question: Ac-VKISVPADLWDWINK-NH2 [peptide of SEQ ID NO: 239] was tested. Which “IC50 in IL-17RA/IL7RC dimerization assay” value did it give?
Answer: Its value is less than 10 µM.

Question: For Ac-LRISVPADLWDWINK-NH2 [peptide of SEQ ID NO: 240], which “IC50 in IL-17RA/IL7RC dimerization assay” value is on record?
Answer: The value was less than 10 µM.

Question: With Ac-LRIYVPADLWDWINK-NH2 [peptide of SEQ ID NO: 241] as the binder, how does the “IC50 in IL-17RA/IL7RC dimerization assay” value read?
Answer: The value was less than 10 µM.

Question: Ac-VRGYVPADLWDWINK-NH2 [peptide of SEQ ID NO: 242] was tested. Which “IC50 in IL-17RA/IL7RC dimerization assay” value did it give?
Answer: The value was less than 10 µM.

Question: Ac-VRAYVPADLWDWINK-NH2 [peptide of SEQ ID NO: 243] was tested. Which “IC50 in IL-17RA/IL7RC dimerization assay” value did it give?
Answer: The value was less than 10 µM.

Question: Which “IC50 in IL-17RA/IL7RC dimerization assay” value does the source give for Ac-VMVTIPADLYEWIEE-NH2 [peptide of SEQ ID NO: 18] here?
Answer: The value was less than 0.4 µM.

Question: Ac-VRLYVPADLWDWINK-NH2 [peptide of SEQ ID NO: 244] was tested. Which “IC50 in IL-17RA/IL7RC dimerization assay” value did it give?
Answer: Its value is less than 10 µM.

Question: How did the “IC50 in IL-17RA/IL7RC dimerization assay” value turn out when Ac-VRIYLPADLWDWINK-NH2 [peptide of SEQ ID NO: 245] was run?
Answer: The value was less than 10 µM.

Question: How did the “IC50 in IL-17RA/IL7RC dimerization assay” value turn out when Ac-IHVTIPLEIFEWLQH-NH2 [peptide of SEQ ID NO: 246] was run?
Answer: Its value is less than 10 µM.

Question: With Ac-IHVTIPLEIFEWAQH-NH2 [peptide of SEQ ID NO: 247] as the binder, how does the “IC50 in IL-17RA/IL7RC dimerization assay” value read?
Answer: Its value is less than 10 µM.

Question: Ac-IHVTIPLEIFEWLQR-NH2 [peptide of SEQ ID NO: 248] was tested. Which “IC50 in IL-17RA/IL7RC dimerization assay” value did it give?
Answer: Its value is less than 10 µM.

Question: Which “IC50 in IL-17RA/IL7RC dimerization assay” value does the source give for Ac-IHVTIPLEVFEWLQH-NH2 [peptide of SEQ ID NO: 249] here?
Answer: Its value is less than 10 µM.

Question: How did the “IC50 in IL-17RA/IL7RC dimerization assay” value turn out when Ac-IHVTIPGEIFEWLQH-NH2 [peptide of SEQ ID NO: 250] was run?
Answer: Its value is less than 10 µM.

Question: For Ac-VRFSVPQEIYEWVRR-NH2 [peptide of SEQ ID NO: 251], which “IC50 in IL-17RA/IL7RC dimerization assay” value is on record?
Answer: The value was less than 10 µM.

Question: Ac-LRISVPLEIFEWLQH-NH2 [peptide of SEQ ID NO: 252] was tested. Which “IC50 in IL-17RA/IL7RC dimerization assay” value did it give?
Answer: The value was less than 10 µM.

Question: With Ac-LRGSVPLEIFEWLQH-NH2 [peptide of SEQ ID NO: 253] as the binder, how does the “IC50 in IL-17RA/IL7RC dimerization assay” value read?
Answer: The value was less than 10 µM.

Question: With Ac-VMVTIPADLYEWIEERRRRRR-NH2 [peptide of SEQ ID NO: 19] as the binder, how does the “IC50 in IL-17RA/IL7RC dimerization assay” value read?
Answer: Its value is less than 1 µM.

Question: How did the “IC50 in IL-17RA/IL7RC dimerization assay” value turn out when Ac-VKISVPLEIFEWLQH-NH2 [peptide of SEQ ID NO: 254] was run?
Answer: Its value is less than 10 µM.

Question: For Ac-VEFNFPQQVYEWFDD-NH2 [peptide of SEQ ID NO: 255], which “IC50 in IL-17RA/IL7RC dimerization assay” value is on record?
Answer: The value was less than 10 µM.

Question: For Ac-VEFNFPQQVYEWVRR-NH2 [peptide of SEQ ID NO: 256], which “IC50 in IL-17RA/IL7RC dimerization assay” value is on record?
Answer: The value was less than 10 µM.

Question: Ac-TWYVFNEQHQEYVRK-NH2 [peptide of SEQ ID NO: 257] was tested. Which “IC50 in IL-17RA/IL7RC dimerization assay” value did it give?
Answer: The value was less than 10 µM.

Question: For Ac-VMVTIPADLYEWIEERRR-NH2 [peptide of SEQ ID NO: 20], which “IC50 in IL-17RA/IL7RC dimerization assay” value is on record?
Answer: The value was less than 1 µM.

Question: How did the “IC50 in IL-17RA/IL7RC dimerization assay” value turn out when Ac-VMVTIPADLYEWIEEARKKAAKA-NH2 [peptide of SEQ ID NO: 21] was run?
Answer: Its value is less than 1 µM.

Question: Which “IC50 in IL-17RA/IL7RC dimerization assay” value does the source give for Ac-VMVTIPADLYEWIEEGGTWWTEWSQ-NH2 [peptide of SEQ ID NO: 22] here?
Answer: The value was less than 1 µM.

Question: How did the “IC50 in IL-17RA/IL7RC dimerization assay” value turn out when Ac-VMVTIPADLYEWIEETWWETWW-NH2 [peptide of SEQ ID NO: 23] was run?
Answer: Its value is less than 1 µM.

Question: Which “IC50 in IL-17RA/IL7RC dimerization assay” value does the source give for Ac-VMVTIPADLYEWIEEVPGWG-NH2 [peptide of SEQ ID NO: 24] here?
Answer: The value was less than 1 µM.

Question: For Ac-VMVTIPADLYEWIEEGGKETWWETW-NH2 [peptide of SEQ ID NO: 25], which “IC50 in IL-17RA/IL7RC dimerization assay” value is on record?
Answer: The value was less than 1 µM.

Question: Which “IC50 in IL-17RA/IL7RC dimerization assay” value does the source give for Ac-VMVTIPADLYEWIEEVPGKG-NH2 [peptide of SEQ ID NO: 26] here?
Answer: Its value is less than 1 µM.

Question: With Ac-VMVTIPADLYEWIEEVPGAG-NH2 [peptide of SEQ ID NO: 27] as the binder, how does the “IC50 in IL-17RA/IL7RC dimerization assay” value read?
Answer: The value was less than 1 µM.

Question: Which “IC50 in IL-17RA/IL7RC dimerization assay” value does the source give for Ac-VMVTIPADLYEWIEERQIKIWFQNRRMKWKK-NH2 [peptide of SEQ ID NO: 28] here?
Answer: Its value is less than 1 µM.

Question: For Ac-RRRRRRRRVMVTIPADLYEWIEE-NH2 [peptide of SEQ ID NO: 29], which “IC50 in IL-17RA/IL7RC dimerization assay” value is on record?
Answer: Its value is less than 1 µM.

Question: With Ac-IMVTIPADLWDWINK-NH2 [peptide of SEQ ID NO: 3] as the binder, how does the “IC50 in IL-17RA/IL7RC dimerization assay” value read?
Answer: The value was less than 0.4 µM.

Question: For Ac-VMVTIPADLYEWIEERRRRRRRR-NH2 [peptide of SEQ ID NO: 30], which “IC50 in IL-17RA/IL7RC dimerization assay” value is on record?
Answer: The value was less than 1 µM.

Question: With Ac-ARKKAAKAVMVTIPADLYEWIEE-NH2 [peptide of SEQ ID NO: 31] as the binder, how does the “IC50 in IL-17RA/IL7RC dimerization assay” value read?
Answer: Its value is less than 1 µM.

Question: For Ac-GGTWWTEWSQVMVTIPADLYEWIEE-NH2 [peptide of SEQ ID NO: 32], which “IC50 in IL-17RA/IL7RC dimerization assay” value is on record?
Answer: Its value is less than 1 µM.

Question: Which “IC50 in IL-17RA/IL7RC dimerization assay” value does the source give for Ac-GGKETWWETWVMVTIPADLYEWIEE-NH2 [peptide of SEQ ID NO: 33] here?
Answer: The value was less than 1 µM.

Question: With Ac-VPGWGVMVTIPADLYEWIEE-NH2 [peptide of SEQ ID NO: 34] as the binder, how does the “IC50 in IL-17RA/IL7RC dimerization assay” value read?
Answer: Its value is less than 1 µM.

Question: How did the “IC50 in IL-17RA/IL7RC dimerization assay” value turn out when Ac-VPGAGVMVTIPADLYEWIEE-NH2 [peptide of SEQ ID NO: 35] was run?
Answer: The value was less than 1 µM.

Question: Ac-VPGKGVMVTIPADLYEWIEE-NH2 [peptide of SEQ ID NO: 36] was tested. Which “IC50 in IL-17RA/IL7RC dimerization assay” value did it give?
Answer: The value was less than 1 µM.

Question: For Ac-VHVTIPAELWEWVRR-NH2 [peptide of SEQ ID NO: 111], which “IC50 in IL-17RA/IL7RC dimerization assay” value is on record?
Answer: The value was less than 0.5 µM.

Question: With Ac-VHFTIPADLWEWVRR-NH2 [peptide of SEQ ID NO: 112] as the binder, how does the “IC50 in IL-17RA/IL7RC dimerization assay” value read?
Answer: The value was less than 0.5 µM.

Question: Ac-VHVQIPADLWEWVRR-NH2 [peptide of SEQ ID NO: 113] was tested. Which “IC50 in IL-17RA/IL7RC dimerization assay” value did it give?
Answer: Its value is less than 0.5 µM.

Question: For Ac-VHVTFPADLWEWVRR-NH2 [peptide of SEQ ID NO: 114], which “IC50 in IL-17RA/IL7RC dimerization assay” value is on record?
Answer: The value was less than 0.5 µM.

Question: How did the “IC50 in IL-17RA/IL7RC dimerization assay” value turn out when Ac-VHVTIPQDLWEWVRR-NH2 [peptide of SEQ ID NO: 115] was run?
Answer: The value was less than 0.5 µM.

Question: How did the “IC50 in IL-17RA/IL7RC dimerization assay” value turn out when Ac-VHVTIPANLWEWVRR-NH2 [peptide of SEQ ID NO: 116] was run?
Answer: Its value is less than 0.5 µM.

Question: Which “IC50 in IL-17RA/IL7RC dimerization assay” value does the source give for Ac-VHVTIPADFWEWVRR-NH2 [peptide of SEQ ID NO: 117] here?
Answer: Its value is less than 0.5 µM.

Question: With Ac-VHVTIPADLYEWVRR-NH2 [peptide of SEQ ID NO: 118] as the binder, how does the “IC50 in IL-17RA/IL7RC dimerization assay” value read?
Answer: Its value is less than 0.5 µM.

Question: Ac-IHVTIPAELWDWINK-NH2 [peptide of SEQ ID NO: 5] was tested. Which “IC50 in IL-17RA/IL7RC dimerization assay” value did it give?
Answer: Its value is less than 0.1 µM.
